Tested on: Human induced pluripotent stem cells (hiPSCs)
Assay: RPE-specific markers expression in hiPSCs differentiated into RPE cells (RTqPCR; FACS)
Type: cell-based
Procedure: Day 0: overall undifferentiated and tight hiPSC morphology was confirmed to be at close to 100% confluency. Otherwise, the cells were fed once more with 4 ml prewarmed iPS Brew medium and instead differentiation was initiate the next day. KSR medium (4 ml needed per 6-well), PD0325901 (PD)/SB431542 (SB)/dorsomorphin (DM) aliquots, as well as Activin A were prepared and/or prewarmed. After thawing and thoroughly mixing all reagents, […] (1:1000 from 1 mM stock), […] (1:2000 from 10 mM stock), […] (1:2000 from 0.5 mM stock) and […] (1:400 from 10 μg/ml stock) were added to 4 ml KSR medium per confluent hiPSC culture well, after vigorously agitating culture plates and completely soaking off iPS Brew medium.
Days 1 and 2: media was prepared as above and old medium replaced on culture wells by 4 ml fresh differentiation medium per well, following vigorous agitation and complete media aspiration.
Day 3: KSR medium with Activin A only was prepared and old medium was replaced on culture wells by 4 ml fresh ActA-only differentiation medium per well, following vigorous agitation and complete media aspiration.
Day 4: fresh KSR+ActA differentiation medium was prepared and feed with 8 ml per well.
Second week: cells were fed daily with 4 ml per 6-well and 8 ml over the weekend.
Third and fourth weeks: no more small molecules were applied during the third and fourth weeks of differentiation. Only Activin A was added to basal media (either KSR or B27 medium) Activin A was added daily to prewarmed basal media, and old medium replaced on cells (1:100 thoroughly mixed).
Day 29 (week 5): newly coated dishes were prepared by coating 12-well (5 μl) or 6-well format (12 μl iM) with 4 x iMatrix-511 in PBS for 1 h at 37° C. KSR medium was prepared and prewarmed for splitting procedure. Differentiated cells were washed with PBS once (4 ml) or twice (2×2 ml), then 1 ml prewarmed TrypLE Se-lec was added. Cells were dissociated using a 1 ml pipette by pipetting up and down several times and results were checked under the microscope. Cell suspension was transferred to 15 ml tube and centrifuged at 300 g for 2 min. A portion of the cells was transferred into a 1.5 ml tube for downstream FACS and/or RT-qPCR analysis. Cells were resuspended in an appropriate amount of KSR medium and cell titer was determined using a Neubauer chamber. 400,000 cells per cm^2 were plated out in 6-well (with 4 ml KSR medium with or without Activin A24) or 12-well format (2 ml medium).
Samples to be analyzed by RT-qPCR were cells directly lysed from culture wells using RA1 buffer from the RNA isolation kit. […] RNA concentration was measured on NanoDrop monitoring A260/280 and A260/230 ratios. […]

B1: Activin A (protein, UniProt P08476 311-426, looked up)
Inhibin beta A chain: GLECDGKVNICCKKQFFVSFKDIGWNDWIIAPSGYHANYCEGECPSHIAGTSGSSLSFHSTVINHYRMRGHSPFANLKSCCVPTKLRPMSMLYYDDGQNIIKKDIQNMIVEECGCS
modifications: homodimer
notes: member of the TGFβ family of proteins; disulfide-linked homodimer (two beta-A chains)
In the case of B1, the RPE gene expression (Activin A treatment initiated after signaling inhibition (PSD then A) vs standard simultaneous protocol, FIG. 6) is reported as “reduced RPE gene expression”, the “induction of RPE cell fate” value (RTqPCR (OTX2, MITF, PMEL), complete withdrawal of the three small molecules, FIG. 5) is reported as “insufficient for inducing RPE cell fate” and the “induction of the RPE phenotype” value (RTqPCR of RPE-specific markers, non-treated vs Activin A only vs PSD+A, FIG. 2C) is reported as “not sufficient to induce the RPE phenotype”. For the same molecule, the RPE induction (titration of Activin A: concentration below 20 ng/ml or complete withdrawal, FIG. 7) was “inferior RPE induction”.

— patent US20230365929A1, “METHOD OF DIFFERENTIATION OF PLURIPOTENT STEM CELLS TO RETINAL PIGMENT EPITHELIUM CELLS” (R.P. SCHERER TECHNOLOGIES, LLC, priority 2022, published 2023)
